Experimental findings from the nanobody polyreactivity screen of Harvey et al. (2022) are described below.

The nature of the data set: yeast display, Sf9 membrane polyspecificity reagent, FACS + sequencing; frameworks hold sequencing errors. The method in brief: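 Sorting gates, low and high (top ~1%), were placed on anti-HA fluorescence to track expression and on streptavidin fluorescence to track reagent binding. A clone's polyreactivity label is taken from the gate it came out of. The reagent was 10% biotinylated, detergent-solubilized Sf9 membrane, applied for 1 hour at 4 °C to galactose-induced yeast display cells.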
Turning to “QVQLVESGGGLVQAGGSLRVSCAASGRTFRYYDMGWYRQAPGKEREFVAAITWRGGSTYYADSVKGRFTISRDNAKNTVYLQMNSLKPEDTAVYYCAADPFDDQLQYDYWGQGTQVTVSS”, the “polyreactivity (PSR sort gate)” value is recorded as “low polyreactivity”. Under “QVQLVESGGGLVQAGGSLRLSCAASGSIFSKNTMGWYRQAPGKEREFVARISVRGGSTYYADSVKGRFTISRDNAKNTVYLQMNSLKPEDTAVYYCNAAHTVTQNSRNSDYWGQGTQVTVSS” stands “high polyreactivity”; under “QVQLVESGGGLVQAGGSLRISCAASGRTFLKNTMGRYRQAPGKERELVAVITRNGDSTYADSVKGRFTISRDNAKNTVYLQMNSLKPEDTAVYYCATTYRDGVYELTTFDYWGQGTQVTVSS”, “low polyreactivity”; under “QVQLVESGGGLVQAGGSLRLSCAASGSIFYANTMGWYRQAPGKEREFVAAITWSGGSTYYADSVKGRFTISRDNAKNTVYLQMNSLKPEDTAVYYCAAEEQRYWYEYYYWGQGTQVTVSS”, “high polyreactivity”.

Regarding “QVQLVESGGGLVQAGGGLRLSCAASGSIFLINAMGWYRQAPGKERELVAAITSGSSTNYADSVKGRFTISRDNAKNTVYLQMNSLKPEDTAVYYCAASTPYSYRYDYWGQGTQVTVSS”, the “polyreactivity (PSR sort gate)” value is recorded as “low polyreactivity”. The value for “QVQLVESGGGLVQAGGSLRLSCAASGSIFGGYAMGWYRQAPGKERELVAAISKTGGTTYYADSVKGRFTISRDNAKNTVYLQMNSLKPEDTAVYYCNAPKRYSGSAYGYGYWGQGTQVTVSS” was “high polyreactivity”. Take “QVQLVESGGGLVQAGGSLRLSCAASGSILSYNAMGWYRQAPGKERELVATITGTGGSTRYADSVKGRFTISRDNAKNTVYLQMNSLKPEDTAVYYCATAAWWYYRIYHEFGYWGQGTQVTVSS”: the “polyreactivity (PSR sort gate)” value is given as “high polyreactivity”. The value for “QDQLVESRGVLVQAGGTLRLSCAASGSTFVYYVMGWYRQAPVKERELVAAISWSDDSTYYADSVKGRFTISRDNAKNTVYLQMNSLIPVDTAVYYCAATGYPFYTSGDIEYYYWGQGTQVTVSS” was “low polyreactivity”; that for “QVQLVESGGGLVQAGGSLRLSCAASGRTFVHYAMGWYRPAPGKERELVAAITWNGGRTYYADSVKGRFTISRDNAKNTVYLQMNSLKPEDTAVYYCAADGKYYHRRPGWPIYDYWGQGTQVTVSS” was “high polyreactivity”; that for “QVQLEESGGGLVQAGGSLRLSCAASGFTFYSYVMGWYRPAPGKVTELVAAIYWSGGSTYYADSVKGRFTISRDNAKYTVYLQMNSLKPEDTAVYYCAARRYASRNGYLYDYWGQGTQVTVSS” was “high polyreactivity”. Take “QVQLVESGGGLVQAGGSLRLSCAASGFTFSYSAMGGYSQAPGKERELVAAISRSGSGTSYADSVKGRFTISRDNAKNTVYLQMTSLKPEDTAVYYCAARGGTTRYGNDYWGQGTQVTVSS”: the “polyreactivity (PSR sort gate)” value is given as “high polyreactivity”.

“QVQLVESGGGLVQAGGSLRLSCAASGITFGGYAMGWYRQAPGKERELVASIRSGSSTNYADSVKGRFTISRDNAKNTVYLQMNSLKPEDTAVYYCAARNFRNRYGYWGQGTQVTVSS”: the “polyreactivity (PSR sort gate)” value is “high polyreactivity”. The value for “QVQLVESGGGLVQAGGSLRLSCAASGSIFGTNAMGWYRQAPGKERELVAAIDGGSTTYYADSVKGRFTISRDNAKNTVYLQMNSLKPEDTAVYYCAADGTRYLNYEGYAGYEYWGQGTQVTVSS” was “low polyreactivity”; that for “QVQLVESGGGLVQAGGSLRLSCAASGLTFASNAMGWYRQAPGKERELVAAISWSDGSTYYADSVKGRFTISRDNAKNTVYLQMNSLKPEDTAVYYCAAESYFFSPRTREKFDYWGQGTQVTVSS” was “low polyreactivity”; that for “QVQLVESGGGLVQAGGSLRLSCAASGSTFVYYAMGWYRQAPGKERELVAVITWSGGRTYYADSVKGRFTISRDNAKNTVYVLMNSLKPEDTAVYYCAARYPGYQYGLDYWGEGTQVTVSS” was “high polyreactivity”. For “QVQLVESGGGLVQAGGSLRLSCAASGNIFAWSAMGWYRQAPGKERELVARITVGSTYYADSVKGRFTISRDNAKNTVYLQMNSLKPEDTAVYYCNKDSGEDDRWPYDYWGQGTQVTVSS”, the “polyreactivity (PSR sort gate)” value is given as “low polyreactivity”.

“QVQLVESGGGLVQAGGSLRLSCAASGSTFPPNAMGWYRQAPGKERELVAVISYTSGRTYYADSVKGRFTISRDNAKNTVYLQMNSLKPEDTAVYYCNKRVLYRQRGFNYWGQGTQVTVSS”: the “polyreactivity (PSR sort gate)” value is on record as “high polyreactivity”. Turning to “QVQLVESGGGLVQAGGSLHLSCAASGRIFGKYAMGWYRQAPGKEREFVAAIRSSDGNTYYADSVKGRFTISRDNAKNTVYLQMNSLKPEDTAVYYCAARGTLWTYGYWGQGTQVTVSS”, the “polyreactivity (PSR sort gate)” value is given as “high polyreactivity”.

Turning to “QVQLQESCGGLVQAGGCLRLSCAASGTIFDPDYMGWYHQAPCKERELVASISLGRITYYADSVKGRFTINRDNAKNTVYLQMNSLKPEDTAVYYCAVRVETIYYYSYWGQGTQVTVRS”, the “polyreactivity (PSR sort gate)” value is reported as “high polyreactivity”.

For the sequence “QLQLVESRPGLVPAGGSLRLSCAPSGSTFSYYAMGRYRQAPGKERELDAAISKSGGSTYYADSVKGRFTISRDNAINTVFLQMNSLKPYDTAFYYCSTRSRDPYSVSYRLDYWGQGTQVTVSS”, the “polyreactivity (PSR sort gate)” value is given as “low polyreactivity”.

For “QVQLVESGGGLVQAGGSLRLSCAASGSNFNYYTMGWYRQAPGKERELVAAITDSGGSTYYADSVMGRFTISRDNAKNTVYLQMNSLIPEDTAVYYCAAAVPELYEVRYHADYWGQGTQVTVST”, the “polyreactivity (PSR sort gate)” value is recorded as “low polyreactivity”. Under “QVQRVESGGGLVQAGGSLRLSCAASGLTFSYNAMGWYRQAPGKERELVAAITVSGGRTYYADSVKGRFTISRDNAKNTVYLQMNSLKPEDTAVYYCNADYDEGYYGYLRYDYDYWGQGTQVTVSS” stands “high polyreactivity”; under “QVQLVESGGGLVQAGGSLRLSFAASGITFPYYAMGWYRQAPGKEREFVAAISSSGGSTYYADSVKGRFTISRDNAKKTVYLKMHCLKAEDTEVYYCAAGVYGRSSYSKPVLYEYWGQGTQVTVSS”, “high polyreactivity”; under “QVQLVESGGGLVQAGGSLRLSCAASGRTFDINTMGWYRQAPGKERELVARISGRGGSTYYADSVKGRFTISRDNAKNTVYLLMNSLKPEYTAVYYCNALGRSVLPQPIGDYWGQGTQVTVSS”, “high polyreactivity”. Regarding “QVQLVESGGGLVQAGGSLRLSCAASGRIFKLYARGWYRQAPGKERELVAAITSGGRTNYADSVKGRFTISRDNAKNTVYLQMNSLKPEDTAVYYCAARYYIVSLGSGYWGQGTQVTVSS”, the “polyreactivity (PSR sort gate)” value was “high polyreactivity”. Under “QVHLVESGGGLVQAGGSLRLSCAASGGIFPGYAMGRYRKAPGKERELVAAITKRGGRTYYADSVKGRFTISRDNAKNTVYLQMNSLKPEDTAVYYCAADYYAAYHLPDQDYDYWGQGTQVTVSS” stands “high polyreactivity”; under “QVQLVESGGGLFQAGGSLRLSCAASGFTFRANAMGWYRQAPGKERELVAVITGSGRTYYADSVKGRFTISRDNAKNTVYLQMNSLKPEDTAVYYCAARAAYRVSSPGYDSWGQGTQVTVSS”, “high polyreactivity”; under “QVQLVESGGGLVQAGGSLRLSCAASGSIFNWYAMGWYIQAPGKERELVAAISSSGSTNYADSVKGRFTISRDNAKNTVYLQMNSLKPEDTEVYYCNADEYYLNNYNYGYWGQGTQVTVSS”, “low polyreactivity”. Consider “QVQLVESGGRLVQAGGSLRLSCAASGRIFWHNAMGWYRQAPGKETELVAAISSRGGSTSYSDSVKGRFTISRDNAKNTVYLQMNSLKPEDTAVYYCAALFRPRVHRYDYWGQGTQVTVSS”, for which the “polyreactivity (PSR sort gate)” value is “low polyreactivity”. The value for “QVQLVESGGGLVQAGGSLRLSCAASGRIFWPNAMGWYLQAPGKESEFVAAIRWSSDRTYYADSVKGRFTISRDNAKNTVYLQMNSLKPEYTAVYYCNAVRYVISKYDYWGHGTQVTVSS” was “high polyreactivity”; that for “QVQLVESGGGLVQAGGSLRLSCAASGRISLFNAMGWYRQAPGKERELVAAITYTGGSTYYADSVKGRFTISRDNAKNTVYLQMNSLKPVDTAVYYCAADPWTAKDDSWGQGTQVTVSS” was “high polyreactivity”.

In the case of “QVQLVESGGGLVQAGGSLRLSCAASGRIFGDYAMGWYRQAPGKERELVADITWSGGSTYYADSVKGRFTISRDNAKNTVYLQMNSLKPEDTAVYYCNADYDGGYYGDLSLYDYWGQGSQVTVSS”, the “polyreactivity (PSR sort gate)” value is reported as “low polyreactivity”.

With “QVQLVESGGGLVQAGGRLRLSCAASGRIFYYYAMGWYRQAPGKERELVAAINRSGGSTYYADSVKGRFTISRDNAKNTVYLQMNSLKPEDTAVYSCASYDYWGQGTQVTVSS”, the “polyreactivity (PSR sort gate)” value was “high polyreactivity”. In the case of “QVQLVESGGGLVQAGGSLRLSCAASGRNISYNAMGWSRQAPGKERELVAAISWGGGSTYYADSVKGRFTISRDNAKNTVYLQMNSLKPEDTAVYYCAKGWYRIKRNDYWGQGTQVTVSS”, the “polyreactivity (PSR sort gate)” value is on record as “low polyreactivity”. The value for “QVQLVESGGGLVQAGGSLRLSCAASGFTFYWYAMGWYRQAPGKEREFVAAIDQSGGSTYYADSVKGRFTISRDNAKNTVYLQMNSLKPEDTAVYYCAARYILWDGDSWTEFDYWGQGTQVTVSS” was “low polyreactivity”; that for “QVQLVESGGGLVQARGSLRLSCAASGRIFNYNAMGWYRQAPGKERELVAAITSSGGSTYYADSVKGRFTISRDNAKNTVYLQMNSLKPEDTAVYYCNALITYSSDYWGQGTQVTVSS” was “low polyreactivity”; that for “QVQLVESGGGLVQAGGSLRLSCAASGGTFYVNAMGWYRQAPGKERELVAAISYRGGRTYYADSVKGRFTISRDNAKNTVYVQMNSVKPEDTAVYYCAAEYSYDHSTGYDYWGQGTQVTVSS” was “low polyreactivity”. As to “QVQLVESGGGLVQAGGSLRLSCAASGSISGYNAMGWYRQAPGKESELVAVITTDGSTNYADSEKGRFTISRDNAKNTVYLQMNSLKPEDTAVYYCNTDDGWRLLWEYDYWGQGTQVTVSS”, the “polyreactivity (PSR sort gate)” value is listed as “low polyreactivity”. The value for “QVQLVESGGGLVQAGGSLRLSCAASGNTFKYYVMGWYRQAPGKERELVAAITRGGSTYYADSVKGRFTISRDNAKNTVYLQMNSLKPEDTAVYYCATDVKIPNFDYWGQGTQVTVSS” was “high polyreactivity”. Under “QVQLVESGGGLVQAGGSLRLSCAASGSTFRRNAMGWDRQAPGKERELVATISPGARTNYADSVKGRFTISRDNAKNTVYLQMNSLKPEDTAVYYCNAEYTLLYPLYDYWGQGTQVTVSS” stands “low polyreactivity”; under “QVQLVESGGGLVQAGGSLRLSCAASGSMFSHYTMGWYRQAPGQERELVAAITNGGITNYADAVKGRFTISRDNAKNTVYLQMNSLKPEDTAVYYCAADWWYGYSNYDYWGQGTQVTVSS”, “low polyreactivity”.
